From US20150218538A1 (UNIVERSITY OF NORTH CAROLINA AT CHAPEL HILL, published 2015)
Each block holds one molecule with its values, some of them ahead of it. Ends that are not written are not given here.

How the values were obtained:
[1] = molecular target: T1, Gαq activated with aluminum fluoride (Gαq-GDP plus aluminum fluoride) (UniProt P50148 35-359); experiment: cell-based or functional assay
T1 sequence (looked up): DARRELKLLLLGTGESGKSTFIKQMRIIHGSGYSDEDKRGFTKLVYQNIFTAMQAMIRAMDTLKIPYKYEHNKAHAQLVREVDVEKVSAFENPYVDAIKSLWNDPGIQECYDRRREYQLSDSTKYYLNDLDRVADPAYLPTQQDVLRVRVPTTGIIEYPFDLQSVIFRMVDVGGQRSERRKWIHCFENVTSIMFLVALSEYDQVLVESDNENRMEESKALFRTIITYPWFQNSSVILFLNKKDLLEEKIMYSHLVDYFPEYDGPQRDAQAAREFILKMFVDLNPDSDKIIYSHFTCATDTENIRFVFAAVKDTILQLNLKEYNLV

[2] = molecular target: chimeric form of Gαq (Gαq/i), activated with aluminum fluoride; experiment: fluorescence polarization in 384-well plates; 30 µM unlabeled 27-mer, 200 nM TAMRA-27-mer, 1.5 µM Gαq/i with aluminum fluoride; competitor: TAMRA-27-mer
[3] = molecular target: T1, Gαq activated with aluminum fluoride …; experiment: fluorescence polarization; Gαq activated with aluminum fluoride titrated into TAMRA-labeled peptide
Text: (§1) Quantification of Gαq binding to peptides corresponding to the HTH of PLβ3. […] KD and IC₅₀ values were derived from three independent experiments.

[4] = molecular target: T1, Gαq activated with aluminum fluoride …; experiment: fluorescence polarization competition; unlabeled PLC-β3 added to labeled 25-mer (400 nM) and Gαq (4 µM); competitor: TAMRA-25-mer
Text: as §1

Molecule: peptide corresponding to the HTH of PLC-β3 and containing an I860A substitution (from UniProt Q01970 852-878)
phospholipase activity of PLC-β3 activated by Gαq in lipid vesicles (IC50) [1]: 0.1 µM

Molecule: unlabeled 27-mer (from UniProt Q01970 852-878) (peptide)
percent decrease in fluorescence polarization [2]: 50 percent

The remaining lines, values ahead:

phospholipase activity of PLC-beta3 activated by G-alpha-q in lipid vesicles, as a function of TAMRA-25-mer concentration (IC50) [1]: ~1 microMolar
Kd [3]: ~6 µM
B1: TAMRA-25-mer (25-residue peptide spanning the entire helix-turn-helix of PLC-β3, labeled with TAMRA) (peptide)
peptide: HQDYAEALINPIKHVSLMDQRARQL
modifications: also: TAMRA label, position not given here
notes: also called labeled 25-mer; 25 residue peptide of PLC-β3

IC50 [4]: ~1 µM
B2: full-length PLC-β3 (wild type) (enzyme, UniProt Q01970 2-1234, looked up)
chain: AGAQPGVHALQLEPPTVVETLRRGSKFIKWDEETSSRNLVTLRVDPNGFFLYWTGPNMEVDTLDISSIRDTRTGRYARLPKDPKIREVLGFGGPDARLEEKLMTVVSGPDPVNTVFLNFMAVQDDTAKVWSEELFKLAMNILAQNASRNTFLRKAYTKLKLQVNQDGRIPVKNILKMFSADKKRVETALESCGLKFNRSESIRPDEFSLEIFERFLNKLCLRPDIDKILLEIGAKGKPYLTLEQLMDFINQKQRDPRLNEVLYPPLRPSQARLLIEKYEPNQQFLERDQMSMEGFSRYLGGEENGILPLEALDLSTDMTQPLSAYFINSSHNTYLTAGQLAGTSSVEMYRQALLWGCRCVELDVWKGRPPEEEPFITHGFTMTTEVPLRDVLEAIAETAFKTSPYPVILSFENHVDSAKQQAKMAEYCRSIFGDALLIEPLDKYPLAPGVPLPSPQDLMGRILVKNKKRHRPSAGGPDSAGRKRPLEQSNSALSESSAATEPSSPQLGSPSSDSCPGLSNGEEVGLEKPSLEPQKSLGDEGLNRGPYVLGPADREDEEEDEEEEEQTDPKKPTTDEGTASSEVNATEEMSTLVNYIEPVKFKSFEAARKRNKCFEMSSFVETKAMEQLTKSPMEFVEYNKQQLSRIYPKGTRVDSSNYMPQLFWNVGCQLVALNFQTLDVAMQLNAGVFEYNGRSGYLLKPEFMRRPDKSFDPFTEVIVDGIVANALRVKVISGQFLSDRKVGIYVEVDMFGLPVDTRRKYRTRTSQGNSFNPVWDEEPFDFPKVVLPTLASLRIAAFEEGGKFVGHRILPVSAIRSGYHYVCLRNEANQPLCLPALLIYTEASDYIPDDHQDYAEALINPIKHVSLMDQRARQLAALIGESEAQAGQETCQDTQSQQLGSQPSSNPTPSPLDASPRRPPGPTTSPASTSLSSPGQRDDLIASILSEVAPTPLDELRGHKALVKLRSRQERDLRELRKKHQRKAVTLTRRLLDGLAQAQAEGRCRLRPGALGGAADVEDTKEGEDEAKRYQEFQNRQVQSLLELREAQVDAEAQRRLEHLRQALQRLREVVLDANTTQFKRLKEMNEREKKELQKILDRKRHNSISEAKMRDKHKKEAELTEINRRHITESVNSIRRLEEAQKQRHDRLVAGQQQVLQQLAEEEPKLLAQLAQECQEQRARLPQEIRRSLLGEMPEGLGDGPLVACASNGHAPGSSGHLSGADSESQEENTQL
notes: mature; also called PLC-beta3; unlabeled PLC-β3
